The data set has as its system CSCC[C@H](N)C(=O)N[C@@H](C)C(=O)N[C@@H](CO)C(=O)O. In words: purified protein, by the assay type. Conditions: other: hydrolysis of methionine from MAS peptide substrate; pH 7.5.

Description: Hydrogen peroxide, produced by the L-amino acid oxidase reaction, was measured by monitoring the formation of resorufin from Amplex Red in a reaction catalyzed by of horseradish peroxidase. […] The reaction was performed in a 96-well plate format at ambient temperature using the following assay buffer: 20 mM HEPES-Na pH 7.5, 100 mM NaCl, 0.1 mM CoCl2 containing 100 μM Amplex Red, 0.15 U/ml L-amino acid oxidase, 0.5 U/ml horseradish peroxidase.
The IC50 values were determined under conditions in which enzyme concentration and reaction time were linear.

Turning to “recombinant human MetAP-1 (Homo sapiens)”, the Km (as a rule, the concentration of substrate that gives half-maximal velocity) worked out at 8.5 mM; the kcat (in general, the number of substrate molecules converted per active site and unit of time at saturation) was found to be 0.75 s⁻¹.
